Data set [1] has as its target T1, CTSL1_1 FRET substrate (ALFKSSFP).
T1 chain: ALFKSSFP

The target of data set [2] is T2, CTSL1_2 8-mer FRET substrate Mca-ALFFSSPPK-Dnp.
T2 chain: ALFFSSPPK

B1: Cathepsin K (CTSK) (protein)
chain: APDSVDYRKKGYVTPVKNQGQCGSCWAFSSVGALEGQLKKKTGKLLNLSPQNLVDCVSENDGCGGGYMTNAFQYVQKNRGIDSEDAYPYVGQEESCMYNPTGKAAKCRGYREIPEGNEKALKRAVARVGPVSVAIDASLTSFQFYSKGVYYDESCNSDNLNHAVLAVGYGIQKGNKHWIIKNSWGENWGNKGYILMARNKNNACGIANLASFPKM
In the case of B1, the “FRET substrate cleavage, specific activity” value in data set [1] and in data set [2] was “measurably cleaved by CTSK but at a 15× lower level than the CTSL1_1 substrate” in each case.

The record behind these values is US20230272028.
